Assay results published in the DeepSol protein solubility set.

Experiment: soluble on expression in E. coli; label from the status in PepcDB or PDB records

Row | Sequence | soluble on expression in E. coli
1 | MAVKEATSETKKRSGYEIITLTSWLLQQEQKGIIDAELTIVLSSISMACKQIASLVQRANISNLTGTQGAVNIQGEDQKKLDVISNEVFSNCLRSSGRTGIIASEEEDVPVAVEESYSGNYIVVFDPLDGSSNLDAAVSTGSIFGIYSPNDECLPDFGDDSDDNTLGTEEQRCIVNVCQPGSNLLAAGYCMYSSSVIFVLTIGKGVFVFTLDPLYGEFVLTQENLQIPKSGKIYSFNEGNYKLWDENLKKYIDDLKEPGPSGKPYSARYIGSLVGDFHRTLLYGGIYGYPRDKKSKNGKLRLLYECAPMSFIVEQAGGKGSDGHQRVLDIQPTEIHQRVPLYIGSTEEVEKVEKYLA | soluble
2 | SNAMQVITSVKEAKQIVKDWKSHQLSIGYVPTMGFLHDGHLSLVKHAKTQDKVIVSIFVNPMQFGPNEDFSSYPRDLERDIKMCQDNGVDMVFIPDATQMYLKNFSTYVDMNTITDKLCGAKRPGHFRGVCTVLTKFFNILNPDIVYMGQKDAQQCVVVRHMVDDLNFDLKIQICPIIREEDGLAKSSRNVYLSKEERKASLAISQSIFLAEKLVREGEKNTSKIIQAMKDILEKEKLIKIDYIELVDFNTMENIENITDNVLGAVAAFVGKTRLIDNFLVQGLK | soluble
3 | MGSDKIHHHHHHMSGETFEFNIRHSGKVYPITLSTDATSADLKSKAEELTQVPSARQKYMVKGGLSGEESIKIYPLIKPGSTVMLLGTPDANLISKPAKKNNFIEDLAPEQQVQQFAQLPVGFKNMGNTCYLNATLQALYRVNDLRDMILNYNPSQGVSNSGAQDEEIHKQIVIEMKRCFENLQNKSFKSVLPIVLLNTLRKCYPQFAERDSQGGFYKQQDAEELFTQLFHSMSIVFGDKFSEDFRIQFKTTIKDTANDNDITVKENESDSKLQCHISGTTNFMRNGLLEGLNEKIEKRSDLTGANSIYSVEKKISRLPKFLTVQYVRFFWKRSTNKKSKILRKVVFPFQLDVADMLTPEYAAEKVKVRDELRKVEKEKNEKEREIKRRKFDPSSSENVMTPREQYETQVALNESEKDQWLEEYKKHFPPNLEKGENPSCVYNLIGVITHQGANSESGHYQAFIRDELDENKWYKFNDDKVSVVEKEKIESLAGGGESDSALILMYKGFGL | not soluble
4 | MKEAMNNHKKLGILLANLGTPQAPTSQAVKAFLSQFLHDQRVVDMSRWLWCPLLHGIILPTRSPKVAKLYQSIWMDEGSPLMVYSRRQRDKLAELSQRPVELGMTYGEPSLLEGVRKLQQQGVEQIVVLPLYPQYSATTTAAVFDGLAKALRQLPVVPELHFIRDYHDHPLYIQALAKSVRASWQQHGQGDLLLCSYHGIPKRYAQNGDIYPEHCLKTTELLAQALGLPQDKVMMTYQSQFGKEEWLQPYTDKTMEALPRQGIKKLDVICPAFSVDCLETLEEIAEQNQEIFLHSGGEAFHYVPCLNDSQSHIELMAALVKVDC | not soluble
5 | MGSDKIHHHHHHMSSSDRYMQRGVSSQKEDVHKAIKSIDKGIYPRAFCKIIPDILGGDPEYCNIMHADGAGTKSSLAYVYWKETGDISVWKGIAQDAVIMNIDDLICVGAVDNILLSSTIGRNKNLIPGEVLAAIINGTEEVLQMLRDNGIGIYSTGGETADVGDLVRTIIVDSTVTCRMKRQDVISNENIKAGNVIVGFASYGQTSYETEYNGGMGSNGLTSARHDVFNNVLASKYPESFDPKVPENLVYSGEMNLTDPYLNVPLDAGKLVLSPTRTYAPLMKEIIHQYKGKLDGVVHCSGGGQTKVLHFTDATTHIIKDNLFDVPPLFQLIQGQSNTPWEEMYKVFNMGHRLEIYTDAAHAEGMIAIAKKFNIEAKIIGRVEAPVAGKRLTITGPQGTEYTYA | not soluble
6 | MGHHHHHHSHMTDPSKLAVAVVCSSNMNRSMEAHNFLAKKGFNVRSYGTGERVKLPGMAFDKPNVYEFGTKYEDIYRDLESKDKEFYTQNGLLHMLDRNRRIKKCPERFQDTKEQFDIIVTVEERVYDLVVMHMESMESVDNRPVHVLNVDVVDNAEDALMGAFVITDMINMMAKSTDLDNDIDELIQEFEERRKRVILHSVLFY | soluble
7 | MTSEHRSASVTPRHISFFNIPGHGHVNPSLGIVQELVARGHRVSYAITDEFAAQVKAAGATPVVYDSILPKESNPEESWPEDQESAMGLFLDEAVRVLPQLEDAYADDRPDLIVYDIASWPAPVLGRKWDIPFVQLSPTFVAYEGFEEDVPAVQDPTADRGEEAAAPAGTGDAEEGAEAEDGLVRFFTRLSAFLEEHGVDTPATEFLIAPNRCIVALPRTFQIKGDTVGDNYTFVGPTYGDRSHQGTWEGPGDGRPVLLIALGSAFTDHLDFYRTCLSAVDGLDWHVVLSVGRFVDPADLGEVPPNVEVHQWVPQLDILTKASAFITHAGMGSTMEALSNAVPMVAVPQIAEQTMNAERIVELGLGRHIPRDQVTAEKLREAVLAVASDPGVAERLAAVRQEIREAGGARAAADILEGILAEAG | soluble
8 | MGSDKIHHHHHHMPVVDAAWEEWLSSNVARGCSPDSMIDAMVQAGFATDAARVAVHKTFGQNPANPAFAAAAATEAALAKAAPQTYQYDDPPVARGNLIRAYDRDVRVVMRCERPQVIVFADVLSPDECAEMIERSRHRLKRSTTVNPATGKEDVIRNRTSEGIWYQRGEDPFIERMDRRISSLMNWPVENGEGLQILHYGTTGEYRPHFDYFPPDQPGSAVHTAQGGQRVATLVIYLNDVPDGGETIFPEAGMSVAASQGGAVYFRYMNDRRQLDPLTLHGGAPVLAGDKWIMTKWMRERAYG | not soluble
9 | MSLRIKDIARLANVSVGTVDRVLHGRSGVSEASRKRVEEILKQLDYQPNMYASALASNKKYTFACLLPKHLEGEYWTDVQKGIREAVTTYSDFNISANITHYDPYDYNSFVATSQAVIEEQPDGVMFAPTVPQYTKGFTDALNELGIPYIYIDSQIKDAPPLAFFGQNSHQSGYFAARMLMLLAVNDREIVIFRKIHEGVIGSNQQESREIGFRQYMQEHHPACNILELNLHADLNIEDSRMLDDFFREHPDVKHGITFNSKVYIIGEYLQQRRKSDFSLIGYDLLERNVTCLKEGTVSFLIAQQPELQGFNSIKTLCDHLIFRKEVACTNYMPIDLLTKENIDYYHSEGHHHHHH | soluble
10 | MEYQHWLREAISQLQASESPRRDAEILLEHVTGRGRTFILAFGETQLTDEQCQQLDALLTRRRDGEPIAHLTGVREFWSLPLFVSPATLIPRPDTECLVEQALARLPEQPCRILDLGTGTGAIALALASERPDCEIIAVDRMPDAVSLAQRNAQHLAIKNIHILQSDWFSALAGQQFAMIVSNPPYIDEQDPHLQQGDVRFEPLTALVAADSGMADIVHIIEQSRNALVSGGFLLLEHGWQQGEAVRQAFILAGYHDVETCRDYGDNERVTLGRYYQ | soluble
11 | MAHHHHHHSTLRHSHEPSPYVQKGEDLSGQKLTPTIKSYRNMEFLNSYSGRMIRILCEFEEPKQRLQQHFIRTTVLFFGSARSMTQAQYDSTVQDIHSKLAAATDDSTKASLQNKLACLKKTQWMCKWVDVVENLARMVAEFSQKEQDMIIRSFRHIPDYFRLTPEDGSESLDDLQKRFHDLVVTTGGGPGFMEAANHGAESVPGAVTMGMGISLPFENGLNPHVTKGLAFEFHYFFTRKFWMMYSCRAIVIAPGGFGTLDEMFELLTLKQTKKIPSLPVVLLGKEFWQTVVNWQALANYGVISQEEIDSLLFTDSAEEAVEHIKDFYHRLASDSPSTE | soluble
12 | MCMSSQSYFKSVMYALVTGGTRGIGRAITEALLKEGYNVAVLYHGSEDKAKELREKGVLTVRCDVGDRNQVKKAKEEISNHFPRLDVLVNNAGIWYLMPFEQFDEEKYERMLRVNLNGTIYVTYEFLSLLKKSSAASIINIASNAGIGTAAEGTTFYAITKAGIIILTRRLAFELGKYGIRVNAVAPGWIETDMTLGNKSDEEKEKLREIFRNKTVLHTTGKPEDIANIVVFLASEKARYITGQVIVADGGRIDNLTHSV | soluble
13 | MAHHHHHHMPVIKEYINPAGLRLDGRRPNEPRRLALEFGKISGCDGCCTVVSGLSHVCATVYGPREVSNRLEGKYNEVTITCDVVVAAFAGERRREQQRYSRLSEDISASVLDVARSVVLLSQYPNSQIHICIEVLKQDGSDKAACINAACLALIDASIAMKDVVYTQTVGLIEGFDVVDLTTEEIHSQCPSICITVQGHDPTNIVWMESNSRLAPEVITRLVKVAQKASTDVFETALRGPLEEHAATVLRLQANLGNIE | soluble
14 | MSLSTSPKPSPIPSPVLGQKPNASQSLLAWCREVTKNYRGVKITNFTTSWRNGLSFCAILHHFRPDLIDYKSLNPQDIKENNKKAYDGFASIGISRLLEPSDMVLLAIPDKLTVMTYLYQIRAHFSGQELNVVQIEENSSKSTYKVGNYETDTNSSVDQEKFYAELSDLKREGHHHHHH | soluble
